# Experimental data: US8734776B2 (ZymoGenetics, Inc., priority 2003, dated 2014)
# B1: IL-29: human IL-29, previously designated zcyto21, SEQ ID NO:4 (protein, listed as Homo sapiens)
# chain: MAAAWTVVLVTLVLGLAVAGPVPTSKPTTTGKGCHIGRFKSLSPQELASFKKARDALEESLKLKNWSCSSPVFPGNWDLRLLQVRERPVALEAELALTLKVLEAAAGPALEDVLDQPLHTLHHILSQLQACIQPQPTAGPRPRGRLHHWLHRLQEAPKKESAGCLEASVTFNLFRLLTRDLKYVADGNLCLRTSTHPEST
# modifications: SIGNAL (1)...(19)
# Tests used:
# [1] = test system: adenovirus; assay type: cell-based; details: A549 cells
# [2] = test system: vaccinia virus; assay type: cell-based; details: Vero cells
# [3] = test system: parainfluenza virus; assay type: cell-based; details: MA-104 cells
# [4] = test system: IL-28RA mRNA; test: Semi-quantitative RT-PCR of IL-28RA, IFNAR2 and CRF2-4 mRNA; assay type: cell-based, human; details: HepG2 cells + cytokine
# Protocol: In order to further examine the mRNA distribution for IL-28RA, semi-quantitative RT-PCR was performed using the SDS 7900HT system (Applied Biosystems, CA). One-step RT-PCR was performed using 100 ng total RNA for each sample and gene-specific primers. A standard curve was generated for each primer set using Bjab RNA and all sample values were normalized to HPRT. The normalized values for IFNAR2 and CRF2-4 are also shown.
# [5] = test system: respiratory syncytial virus; assay type: cell-based; details: MA-104 cells
# [6] = test system: adenoviral vector, AdGFP; test: Adenoviral (AdGFP) liver pathology in mice; assay type: in vivo, mouse; details: C57Bl/6 mice
# Protocol: When injected intravenously, these viruses primarily target the liver for gene expression. The adenoviruses are replication deficient, but cause liver damage due to inflammatory cell infiltrate that can be monitored by measurement of serum levels of liver enzymes like AST and ALT, or by direct examination of liver pathology.
# C57B116 mice were given once daily intraperitoneal injections of 50 μg mouse IL-28 (zcyto24 as shown in SEQ ID NO:8) or metIL-29C172S—PEG for 3 days. Control animals were injected with PBS. One hour following the 3rd dose, mice were given a single bolus intravenous tail vein injection of the adenoviral vector, AdGFP (1×10^9 plaque-forming units (pfu)). Following this, every other day mice were given an additional dose of PBS, mouse IL-28 or metIL-29C172S—PEG for 4 more doses (total of 7 doses). One hour following the final dose of PBS, mouse IL-28 or metIL-29C172S—PEG mice were terminally bleed and sacrificed. The serum and liver tissue were analyzed. Serum was analyzed for AST and ALT liver enzymes. Liver was isolated and analyzed for GFP expression and histology. For histology, liver specimens were fixed in formalin and then embedded in paraffin followed by H&E staining. Sections of liver that had been blinded to treat were examined with a light microscope. Changes were noted and scored on a scale designed to measure liver pathology and inflammation.
# [7] = test system: encephelomyocarditis virus; test: Antiviral assay: cytopathic effect in L929 cells; assay type: cell-based, mouse
# [8] = test system: venezuelan equine encephalitis virus; assay type: cell-based; details: Vero cells
# [9] = test system: polio virus; assay type: cell-based; details: Vero cells
# [10] = test system: dengue virus; assay type: cell-based; details: Vero cells
# [11] = test system: ISG gene expression (OAS, Pkr, Mx1); test: ISG gene induction in liver, spleen and blood of injected mice; assay type: in vivo, mouse; details: for OAS (24 hr): mice, expression relative to internal HPRT; for OAS- 1 hr: 1 hr after single injection of 250 μg i.v.; for OAS- 1 hr / OAS-6 hr / OAS-24 hr / OAS-48 hr: average of 5 animals; for OAS-6 hr: 6 hr after single injection of 250 μg i.v.; for OAS-24 hr: 24 hr after single injection of 250 μg i.v.; for OAS-48 hr: 48 hr after single injection of 250 μg i.v.
# Protocol: In addition, E. coli derived IL-29 was also tested in in vivo assays as described above using MetIL-29C172S-PEG and MetIL-29-PEG. At various time points and at different doses, ISG gene induction was measured in the blood, spleen and livers of the mice.
# Mice were sacrificed at various time points (1 hr-48 hr). Spleens and livers were isolated from mice, and RNA was isolated. RNA was also isolated from the blood cells. The cells were pelleted and RNA isolated from pellets using RNAEasy®-kit (Qiagen). RNA was treated with DNase (Amicon) to rid RNA of any contaminating DNA. cDNA was generated using Perkin-Elmer RT mix (Perkin-Elmer). ISG gene induction was measured by real-time PCR using primers and probes specific for mouse OAS, Pkr and M×1. To obtain quantitative data, HPRT real-time PCR was duplexed with ISG PCR. A standard curve was calculated using known amounts of IFN-stimulated mouse PBLs. All data are shown as expression relative to internal HPRT expression.
# Results shown are fold expression relative to HPRT gene expression. […] The data shown is the average expression from 5 different animals/group.
# Data shown is fold expression over HPRT expression from livers of mice. Similar data was obtained from blood and spleens of mice.
# [12] = test system: EMCV; test: EMCV antiviral dye-uptake assay in HepG2 cells; assay type: cell-based, human; details: dye-uptake OD570
# [13] = test system: human marrow mononuclear cells; test: Bone marrow expansion assay (Alamar Blue); assay type: cell-based
# [14] = test system: west nile virus; assay type: cell-based; details: Vero cells
# [15] = test system: venezuelan equine encephalitis virus; assay type: cell-based; details: Vero cells; remark: listed apart in the source
# [16] = test system: BVDV; test: BVDV CPE inhibition assay in MDBK cells; assay type: cell-based; details: MDBK bovine kidney cells
# Protocol: IFNα and RIBAVIRIN® were used as positive controls. Test sample were added at the time of viral infection.
# [17] = test system: encephelomyocarditis virus; test: Antiviral assay: cytopathic effect in HeLa cells; assay type: cell-based, human
# [18] = test system: parainfluenza virus; assay type: cell-based; details: MA-104 cells; remark: listed apart in the source
molecule,measurement,setting,value
B1,EC50 NR,[1],>10 µg/mL
same,IC50 NR,[1],>10 µg/mL
same,EC50 NR,[2],>10 µg/mL
same,IC50 NR,[2],>10 µg/mL
same,EC50 NR,[3],>10 µg/mL
same,IC50 NR,[3],>10 µg/mL
same,CRF2-4 mRNA normalized to HPRT,[4],3.01
same,IFNAR2 mRNA normalized to HPRT,[4],2.53
same,IL-28RA mRNA normalized to HPRT,[4],2.28
same,EC50 NR,[5],>10 µg/mL
same,IC50 NR,[5],>10 µg/mL
same,liver histology: liver and inflammation scores versus PBS-treated group,[6],lower liver and inflammation scores
same,"liver histology: sinusoidal cells, mitotic figures, hepatocyte changes versus PBS treatment group",[6],"less proliferation of sinusoidal cells, fewer mitotic figures and fewer changes in the hepatocytes"
same,average serum AST,"[6]; 50 μg i.p., 7 doses, n=8",162 U/L
same,serum ALT,"[6]; 50 μg i.p., 7 doses, n=8",184 U/L
same,Percentage Cytopathic Effect,[7]; relative CM conc. .008X,87%
same,Percentage Cytopathic Effect,[7]; relative CM conc. .0156X,87%
same,Percentage Cytopathic Effect,[7]; relative CM conc. .0325X,87%
same,Percentage Cytopathic Effect,[7]; relative CM conc. .0625X,87%
same,Percentage Cytopathic Effect,[7]; relative CM conc. .125X,87%
same,Percentage Cytopathic Effect,[7]; relative CM conc. .25X,87%
same,Percentage Cytopathic Effect,[7]; relative CM conc. .5X,87%
same,EC50 NR,[8],0.05 µg/mL
same,IC50 NR,[8],>10 µg/mL
same,EC50 Visual,[9],>10 µg/mL
same,IC50 Visual,[9],>10 µg/mL
same,EC50 Visual,[10],0.032 µg/mL
same,IC50 Visual,[10],>10 µg/mL
same,time of peak expression of ISGs after injection,[11]; C57BL/6 mice,1 to 6 h
same,"ISG gene expression (OAS, Pkr, Mx1) in the livers, spleen and blood of mice","[11]; C57BL/6 mice, i.p or i.v, 10 μg-250 μg",induced ISG gene expression
same,OAS (24 hr),[11]; injection 10 μg,3.7
same,OAS (24 hr),[11]; injection 50 μg,4.2
same,OAS (24 hr),[11]; injection 250 μg,6
same,OAS- 1 hr,[11]; mouse blood,12 fold expression relative to HPRT gene expression
same,OAS-6 hr,[11]; mouse blood,18 fold expression relative to HPRT gene expression
same,OAS-24 hr,[11]; mouse blood,11 fold expression relative to HPRT gene expression
same,OAS-48 hr,[11]; mouse blood,10 fold expression relative to HPRT gene expression
same,OAS- 1 hr,[11]; mouse liver,2.5 fold expression relative to HPRT gene expression
same,OAS-6 hr,[11]; mouse liver,4 fold expression relative to HPRT gene expression
same,OAS-24 hr,[11]; mouse liver,2.5 fold expression relative to HPRT gene expression
same,OAS-48 hr,[11]; mouse liver,2.8 fold expression relative to HPRT gene expression
same,OAS- 1 hr,[11]; mouse spleen,4 fold expression relative to HPRT gene expression
same,OAS-6 hr,[11]; mouse spleen,6 fold expression relative to HPRT gene expression
same,OAS-24 hr,[11]; mouse spleen,3.2 fold expression relative to HPRT gene expression
same,OAS-48 hr,[11]; mouse spleen,3.2 fold expression relative to HPRT gene expression
same,EC50 antiviral activity,[12],0.0006 µg/mL
same,bone marrow cell expansion,[13]; in the presence of IL-2 or IL-15,small inhibition
same,expansion of bone marrow cells,"[13]; in the presence of IL-3, IL-4, IL-5, IL-7, IL-10, IL-12, IL-21 or no added cytokine",no significant effect
same,EC50 Visual,[14],0.032 ng/mL
same,IC50 Visual,[14],>10 µg/mL
same,EC50 Visual,[15],0.012 µg/mL
same,IC50 Visual,[15],>10 µg/mL
same,IC50 inhibition of cell death induced by BVDV,[16],0.19 µg/mL
same,Percentage Cytopathic Effect,[17]; relative CM concentration .008X,56%
same,Percentage Cytopathic Effect,[17]; relative CM concentration .0156X,31%
same,Percentage Cytopathic Effect,[17]; relative CM concentration .0325X,10%
same,Percentage Cytopathic Effect,[17]; relative CM concentration .0625X,10%
same,Percentage Cytopathic Effect,[17]; relative CM concentration .125X,5%
same,Percentage Cytopathic Effect,[17]; relative CM concentration .25X,0%
same,Percentage Cytopathic Effect,[17]; relative CM concentration .5X,0%
same,EC50 Visual,[18],>10 µg/mL
same,IC50 Visual,[18],>10 µg/mL
